PMC6614362

Experiments:
[1] = biological target: RsbR (Listeria monocytogenes stressosome component) (L. monocytogenes); experiment: cryo-EM structure; stressosome assembled from purified RsbR, RsbS and RsbT with 1 mM ADP; 20 µg/ml on Quantifoil grids; maps at 4.48 Å (no symmetry) and 3.38 Å (icosahedral symmetry, turrets masked out)
[2] = biological target: RsbS (Listeria monocytogenes stressosome component) (L. monocytogenes); experiment: SEC; purified RsbR and RsbS mixed, complex taken from Superose 6 void volume, combined with excess RsbT (4 °C, 4 h), Superose 6 in 20 mM Tris HCl pH 8.5, 150 mM NaCl, 1 mM ADP, 1 mM DTT; fractions analysed by SDS-PAGE
[3] = biological target: RsbS (Listeria monocytogenes stressosome component) (L. monocytogenes); experiment: cryo-EM structure; stressosome assembled from purified RsbR, RsbS and RsbT with 1 mM ADP; 20 µg/ml on Quantifoil grids; maps at 4.48 Å (no symmetry) and 3.38 Å (icosahedral symmetry, turrets masked out)
[4] = biological target: RsbR:RsbS complex (preformed, purified by gel filtration) (L. monocytogenes); experiment: SEC; purified RsbR and RsbS mixed, complex taken from Superose 6 void volume, combined with excess RsbT (4 °C, 4 h), Superose 6 in 20 mM Tris HCl pH 8.5, 150 mM NaCl, 1 mM ADP, 1 mM DTT; fractions analysed by SDS-PAGE

“RsbR (Listeria monocytogenes stressosome component) (natural protein)” was tested, and the stoichiometry N [1] was 2 and the stoichiometry N (RsbR per RsbS) [2] was 2.
In the case of “RsbS (Listeria monocytogenes stressosome component) (natural protein)”, the stoichiometry N [3] is reported as 2.
“RsbT (Listeria monocytogenes stressosome kinase) (enzyme)” was tested, and the stoichiometry N (RsbT per RsbS (RsbR:RsbS:RsbT 2:1:1)) [4] was 1.
